Blank lines part the entries; values can stand above or below the molecule they belong to.
B1: Cg25c NC1 domain of the tissue-extracted (endogenous) NC1 hexamer (domain or fragment, Drosophila (endogenous in fly pellet))
chain: LDYLTGILITRHSQSETVPACSAGHTELWTGYSLLYVDGNDYAHNQDLGSPGSCVPRFSTLPVLSCGQNNVCNYASRNDKTFWLTTNAAIPMMPVENIEIRQYISRCVVCEAPANVIAVHSQTIEVPDCPNGWEGLWIGYSFLMHTAVGNGGGGQALQSPGSCLEDFRATPFIECNGAKGTCHFYETMTSFWMYNLESSQPFERPQQQTIKAGERQSHVSRCQVCMKNSS
modifications: sulfilimine cross-links in the tissue-extracted hexamer
notes: collagen IV Cg25c chain of Drosophila, NC1 domain set free by collagenase; NC1 numbering starts at residue 1551 of P08120; Fly Pellet, DGRC Stock 1661280; also called Cg25c chain; source: purified from Drosophila pellet (collagenase treatment; SEC, Q-sepharose, hydroxyapatite)
B2: Cg25c NC1 domain as it stands in the single-chain CVC trimer (domain or fragment, Drosophila)
chain: B1 chain
notes: collagen IV Cg25c chain of Drosophila, NC1 domain; NC1 numbering starts at residue 1551 of P08120; Not a free chain: joined to the Vkg NC1 domain by GSSASSG linkers on the chain of m5 (it stands there twice; the first copy carries the N-terminal FLAG tag); Made a molecule only for the pairs seen in the CVC crystal structure; source: expiCHO-S cells, as a part of the single-chain CVC trimer; …
B3: Vkg NC1 domain of the tissue-extracted (endogenous) NC1 hexamer (domain or fragment, Drosophila (endogenous in fly pellet))
chain: APKSRGFIFARHSQSVHVPQCPANTNLLWEGYSLSGNVAASRAVGQDLGQSGSCMMRFTTMPYMLCDITNVCHFAQNNDDSLWLSTAEPMPMTMTPIQGRDLMKYISRCVVCETTTRIIALHSQSMSIPDCPGGWEEMWTGYSYFMSTLDNVGGVGQNLVSPGSCLEEFRAQPVIECHGHGRCNYYDALASFWLTVIEEQDQFVQPRQQTLKADFTSKISRCTVCRRRGN
modifications: sulfilimine cross-links in the tissue-extracted hexamer
notes: collagen IV Vkg (Viking) chain of Drosophila, NC1 domain set free by collagenase; NC1 numbering starts at residue 1511 of Q9VMV5; peptides of the tail after the NC1 domain were not detected; Fly Pellet, DGRC Stock 1661280; also called Viking; Vkg chain; source: purified from Drosophila pellet (collagenase treatment; SEC, Q-sepharose, hydroxyapatite)
B4: Vkg NC1 domain as it stands in the single-chain CVC trimer (domain or fragment, Drosophila)
chain: B3 chain
notes: collagen IV Vkg (Viking) chain of Drosophila, NC1 domain; NC1 numbering starts at residue 1511 of Q9VMV5; Not a free chain: joined on both sides to Cg25c NC1 domains by GSSASSG linkers on the chain of m5; Made a molecule only for the pairs seen in the CVC crystal structure; source: expiCHO-S cells, as a part of the single-chain CVC trimer; purified (anti-FLAG resin, SEC)

What was measured:
[1] = target: single-chain CVC NC1 trimer (Cg25c-Vkg-Cg25c NC1 domains on one chain, FLAG-tagged, without mEmerald) (Drosophila) (UniProt P08120); test: SEC; trimer peaks pooled, concentrated to ~10 mg/ml, kept at 4 °C for a month (legend: about 6 months) in tris-buffered saline; peaks also pooled and rerun in tris-buffered saline; trimer to hexamer
[2] = target: the molecule itself; test: crystal structure; tissue-extracted NC1 hexamer, ~3.5 mg/ml, 35% MPD, 0.1 M NaCl, 100 mM Hepes pH 7.5, 22 °C; 2.98 Å
[3] = target: the molecule itself; test: crystal structure; recombinant CVC trimer, ~8.5 mg/ml, 0.1 M Na/K phosphate pH 6.5, 0.2 M NaCl, 26% PEG 1000, 22 °C; 1.75 Å; hexamer in the crystal
[4] = target: B1; test: SEC; collagenase digest of Drosophila pellet; hexamer peak at 12.99 ml; then Q-sepharose and hydroxyapatite; single band of the sample not boiled cut out, trypsin or chymotrypsin digestion, MS/MS; settings: both partners purified
[5] = target: B2; test: crystal structure; recombinant CVC trimer, ~8.5 mg/ml, 0.1 M Na/K phosphate pH 6.5, 0.2 M NaCl, 26% PEG 1000, 22 °C; 1.75 Å; hexamer in the crystal; settings: both partners purified

percent in the hexamer peak [1]: 25%
Molecule: single-chain CVC NC1 trimer (Cg25c-Vkg-Cg25c NC1 domains on one chain, FLAG-tagged, without mEmerald) (from UniProt P08120 1550-1779; Q9VMV5 1510-1739; P08120 1550-1779)

Molecule: B1
binding result [2]: binds

Molecule: B2
binding result [3]: binds

Molecule: B3
binding result [4]: binds

Molecule: B4
binding result [5]: binds
